The text below walks through data of PMC5764400, “Biophysical insights from a single chain camelid antibody directed against the Disrupted-in-Schizophrenia 1 protein” (PLoS ONE, 2018).

The labels stand for the following.
B1: anti-DISC1 VHH B5 antibody (VHH)
VHH: QVKLEESGGGLVQAGGSLRLSCAASGTLFSISVMGWYRQAPGMQRELVGSITDGGSTIYGDSVKGRFAISKDNAKRTIYLQMNSLKPEDTAVYYCNYRRLTSNYWGQGTQVTVSS
notes: Selected by phage display from an immunised llama; the homology model holds residues 1-120; PDB 3EZJ chain B is only the template of the homology model, not this VHH; also called clone B5; VHH domain B5; source: E. coli BL21 Rosetta (pET-22b, periplasm), purified (Ni2+-NTA, SEC)
B2: full length human DISC1 (natural protein, UniProt Q9NRI5 1-854, looked up)
chain: MPGGGPQGAPAAAGGGGVSHRAGSRDCLPPAACFRRRRLARRPGYMRSSTGPGIGFLSPAVGTLFRFPGGVSGEESHHSESRARQCGLDSRGLLVRSPVSKSAAAPTVTSVRGTSAHFGIQLRGGTRLPDRLSWPCGPGSAGWQQEFAAMDSSETLDASWEAACSDGARRVRAAGSLPSAELSSNSCSPGCGPEVPPTPPGSHSAFTSSFSFIRLSLGSAGERGEAEGCPPSREAESHCQSPQEMGAKAASLDGPHEDPRCLSRPFSLLATRVSADLAQAARNSSRPERDMHSLPDMDPGSSSSLDPSLAGCGGDGSSGSGDAHSWDTLLRKWEPVLRDCLLRNRRQMEVISLRLKLQKLQEDAVENDDYDKAETLQQRLEDLEQEKISLHFQLPSRQPALSSFLGHLAAQVQAALRRGATQQASGDDTHTPLRMEPRLLEPTAQDSLHVSITRRDWLLQEKQQLQKEIEALQARMFVLEAKDQQLRREIEEQEQQLQWQGCDLTPLVGQLSLGQLQEVSKALQDTLASAGQIPFHAEPPETIRSLQERIKSLNLSLKEITTKVCMSEKFCSTLRKKVNDIETQLPALLEAKMHAISGNHFWTAKDLTEEIRSLTSEREGLEGLLSKLLVLSSRNVKKLGSVKEDYNRLRREVEHQETAYETSVKENTMKYMETLKNKLCSCKCPLLGKVWEADLEACRLLIQSLQLQEARGSLSVEDERQMDDLEGAAPPIPPRLHSEDKRKTPLKVLEEWKTHLIPSLHCAGGEQKEESYILSAELGEKCEDIGKKLLYLEDQLHTAIHSHDEDLIQSLRRELQMVKETLQAMILQLQPAKEAGEREAAASCMTAGVHEAQA
notes: Disrupted-in-Schizophrenia 1 (DISC1), human, UniProtKB Q9NRI5; source: NLF human neuroblastoma cells, transfected, in lysate
B3: human DISC1 fragment comprising residues 691-836 (C region) (domain or fragment, UniProt Q9NRI5 691-836, looked up)
chain: WEADLEACRLLIQSLQLQEARGSLSVEDERQMDDLEGAAPPIPPRLHSEDKRKTPLKVLEEWKTHLIPSLHCAGGEQKEESYILSAELGEKCEDIGKKLLYLEDQLHTAIHSHDEDLIQSLRRELQMVKETLQAMILQLQPAKEAG
notes: also called DISC1 C region; source: E. coli BL21 AI (pESPRIT002), purified (Ni2+-NTA, SEC); not shown: His tag, N-terminal, kept
B4: human DISC1 fragment 480-721 (domain or fragment, UniProt Q9NRI5 480-721, looked up)
chain: EAKDQQLRREIEEQEQQLQWQGCDLTPLVGQLSLGQLQEVSKALQDTLASAGQIPFHAEPPETIRSLQERIKSLNLSLKEITTKVCMSEKFCSTLRKKVNDIETQLPALLEAKMHAISGNHFWTAKDLTEEIRSLTSEREGLEGLLSKLLVLSSRNVKKLGSVKEDYNRLRREVEHQETAYETSVKENTMKYMETLKNKLCSCKCPLLGKVWEADLEACRLLIQSLQLQEARGSLSVEDERQ
notes: Disrupted-in-Schizophrenia 1 (DISC1), human, UniProtKB Q9NRI5, residues 480-721; same vector as m3; also called DISC1^480-721; source: E. coli BL21 AI (pESPRIT002), purified (Ni2+-NTA, SEC)
B5: human DISC1 fragment 598-715 (domain or fragment, UniProt Q9NRI5 598-715, looked up)
chain: GNHFWTAKDLTEEIRSLTSEREGLEGLLSKLLVLSSRNVKKLGSVKEDYNRLRREVEHQETAYETSVKENTMKYMETLKNKLCSCKCPLLGKVWEADLEACRLLIQSLQLQEARGSLS
notes: same vector as m3; source: E. coli BL21 AI (pESPRIT002), purified (Ni2+-NTA, SEC)

Assay [1] concerns the target B3. In words: SEC + SPR; stoichiometry of the DISC1^691-836 - VHH B5 complex as supported by the SEC and SPR results. The following applies: both partners purified.
In assay [2] the target is B3. Kind of assay: SPR; Biacore T200, 25°C, PBS/0.05% Tween-20 pH 7.4; DISC1^691-836 amine-coupled to a CM5 chip (250 RU); VHH B5 19 nM to 1.5 uM injected in a single cycle; response levels against concentration fitted with Langmuir 1:1 model. The following applies: both partners purified.
Assay [3] addresses T1, anti-DISC1 human Fc-VHH antibody (VHH B5 fused to human Fc) (Lama glama).
T1 construct: as the VHH of m1; also called VHH-Fc; VHH–Fc antibody; not shown: Fc (human), C-terminal, kept
Kind of assay: far-Western, overlay or dot blot; western blot of lysates of NLF neuroblastoma cells transfected with human DISC1 or mouse Disc1, probed with the VHH-Fc (conditioned medium). The following applies: partners not purified.

Assay [4] addresses T1, anti-DISC1 human Fc-VHH antibody (VHH …). Kind of assay: far-Western, overlay or dot blot; western blot of purified His-tagged DISC1 truncation constructs probed with the VHH-Fc (conditioned medium) and an anti-human secondary antibody. The following applies: one partner purified.

For B1, in assay [1], the “stoichiometry N” value was 1. Also, in assay [2], the Kd was 139 nM.
As to B2, in assay [3], the binding result is reported as “binds”.
On to B3, for which, in assay [4], the binding result is on record as “binds”.
The same measure, in the same setting: in the case of B4 it was “binds”; in that of B5, “binds”.
